Assay results from the nanobody polyreactivity screen of Harvey et al. (2022).

Assay: yeast display, Sf9 membrane polyspecificity reagent, FACS + sequencing; frameworks hold sequencing errors
In short: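 In a synthetic yeast display library (Saccharomyces cerevisiae BJ5465), nanobody expression was induced with galactose for 36–48 hours. FACS gates were set low and high (top ~1%) using anti-HA fluorescence for expression and streptavidin fluorescence for binding of the Sf9 membrane reagent. Each polyreactivity label is drawn from the gate of origin.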

Row | Sequence | polyreactivity (PSR sort gate)
1 | QVQLVESGGGLVQAGGSLRLSCAASGLTLAPYAMGWYRQAPGKERELVAVITRRGGRTYYADSVKGRFTISRDNAKNTVYLQMNSLKPEDTAVYYCNADTANYADGLDYWGQGTQVTVSS | low polyreactivity
2 | QVQLVESGGGLVQAGGSLRLSCAASGLTLFRNAMGWYRQAPGKERELVAAISSGGSTYYADSVKGRFTISRDNAKNTVYLQMNSLKPEDTAVYYCATDSVSPVEEEDYWGQGTQVTVSS | low polyreactivity
3 | QVQLVESGGGLVQAGGSLRLSCAASGLTLHGNAMGWYRQAPGKERELVATITSSGGSTFYADSVKGRFTISRDNAKNTVYLQMNSLKPEDTAVYYCNADAPYSDDYYVRFDYWGQGTQVTVSS | low polyreactivity
4 | QVQLVESGGGLVQAGGSLRLSCAASGLTLQGYVMGWSRQAPGKDRELVATISYSGGSTRYADSVKGRFTISRDNAKNTVYLQMNSLNPEDTAVYYCNRDSFHYYAERDYWGQGTQVTVSS | low polyreactivity
5 | QVQLVESGGGLVQAGGSLRLSCAASGLTLQPYAMGWSRQAPRNERELVAAITSGGSTYYADSVKGRFTISRDNAKNTVYLQMNSLKPEDTAVYYCAATVSYDFGYVAVSYDYWGQGTQVTVSS | low polyreactivity
6 | QVQLVESGGGLVQAGGSLRLSCAASGLTLQRYTMGWYRQAPGKERELVAAISRSGGGTYYADSVKGRFTISRDNAKNTVYLQMNSLKPEDTAVYYCNKVRGAVPWFDMDYWGQGTQVTVSS | high polyreactivity
7 | QVQLVESGGGLVQAGGSLRLSCAASGLTLRNYAMGWYRQAPGKERELVAAITTGGGRTYYADSVKGRFTISRDNAKNTVYLQMNSLKPEDTAVYYCAAERAILSSDKQSLWRFDYWGQGTQVTVSS | low polyreactivity
8 | QVQLVESGGGLVQAGGSLRLSCAASGLTLRRYAMGWYRQAPGKETELVAGITSGGSTYYADSVKGRFTISRDNAKNTVYLQMYSLKPEDTAVYYCAARVRKYYKPYGYWGQGTQVTVSS | high polyreactivity
9 | QVQLVESGGGLVQAGGSLRLSCAASGLTLSGNAMGWYRQAPGKERELVAAITGRGGSTTYADSVKGRFTISRDNAKNTVYLLMNSLKPEDTAVYYCAADGRWYWDYEYWGQGTQVTVSS | low polyreactivity
10 | QVQLVESGGGLVQAGGSLRLSCAASGLTLSGYAMGWYRQAPGKERELVAAISYTGGSTYYADSVKGRFTISRDNAKNTVYLQMNSLKPEDTAVYYCAARAGSRSFDYWGQGTQVTVSS | high polyreactivity
11 | QVQLVESGGGLVQAGGSLRLSCAASGLTLSYNAMGWYRQAPGKERELVAAIRSGGSTNYADSVKGRFTISRDNAKNTVYLQMNSLKPEDTAVYYCAARFRYLPYRYGRYQSGYEYWGQGTQVTVSS | high polyreactivity
12 | QVQLVESGGGLVQAGGSLRLSCAASGLTLSYYAMGWYRQAPGKERELVATISWRTGSTYYADSVKGRFTISRDNAKNTVYLQMNSLKPEDTAVYYCNARGFQYSYSHLIYYPYDYWGQGTQVTVSS | high polyreactivity
13 | QVQLVESGGGLVQAGGSLRLSCAASGLTLVTYAMGSYRQAPGKERELVAAINSGGSTNYADSVKGRFTISRDNAKNTVYLQMNSLKPEDTAVYYCNADRVSPATYDYWGQGTQVTVSS | low polyreactivity
14 | QVQLVESGGGLVQAGGSLRLSCAASGLTLVTYAMGWYRQAPGNERELVAAINSGGSTNYADSVKGRFTISRDNAKNTVYLQMNSLKPEDTAVYYCNADRVSPATYDYWGQGTQVTVSS | low polyreactivity
15 | QVQLVESGGGLVQAGGSLRLSCAASGLTLYGYTMGWYRQAPGKERELVATITTGGDSTYYADSVKGRFTISRDNAKNTVYLQMNSLKPEDTAVYYCAAYSYGWDYSYDYWGQGTQVTVSS | low polyreactivity
16 | QVQLVESGGGLVQAGGSLRLSCAASGLTLYKNGMGWYRQAPGKERELVAVISRSGGRTYYADSVKGRFTISRDNAKNTVYLQMNSLKPEDTAVYYCAAAWYSSSRYQGIYRFDYWGQGTQVTVSS | high polyreactivity

Row | Sequence | polyreactivity (PSR sort gate)
17 | QVQLVESGGGLVQAGGSLRLSCAASGLTLYRNAMGWYRQAPGKERELVATINFSGGSKYYADSVKGRFTISRDNAKNTVYLQMNSLKPEDTAVYFCNARGYWHYSPTKFDYWGQGTQVTVSS | low polyreactivity
18 | QVQLVESGGGLVQAGGSLRLSCAASGLTLYTYAMGWYRQAPGKERELVAAISKNGGRTYYADSVKGRFTISRDNANNTVYLQMNSLKPEDTAVYYCAARARVGSVTFDYWGQGTQVTVSS | high polyreactivity
19 | QVQLVESGGGLVQAGGSLRLSCAASGLTLYYYAMGWYRQAPGKERELVAAINRGGSTYYSDSVKGRFTISRDNEKNTVYLLMNSLKPEDTAVYYCAVDYGVRDLTYYYCGQGTQVTVSS | low polyreactivity
20 | QVQLVESGGGLVQAGGSLRLSCAASGLTSHSYAMGWYRQAPGKERELVAAINGDGGSTYYADSVKGRFTISRDNAKNTVYLQMNSLKPEDTAVYYCAAQGNRPRGEYDYWGQGTQVTVSS | high polyreactivity
21 | QVQLVESGGGLVQAGGSLRLSCAASGLTSKFYAMGWYRQAPGKERELVAAISGSGGSTYYADSVKGRFTISRDKAKNTVYLQMNSLKPEDTAVYYCAARYFGLRYYYWGQGTQVTVSS | high polyreactivity
22 | QVQLVESGGGLVQAGGSLRLSCAASGLTVKYYAMGWFRQAPGKERELAAIISFGGGSTYYADSVKGRFTISRDNAKNTVYLQMNSLKPEDTAVYYCNARLLFKYGYWGQGTQVTVSS | high polyreactivity
23 | QVQLVESGGGLVQAGGSLRLSCAASGLTVLQNAMGWYRQAPGKEWELVAAINIGTNTYADSVKGRFTSARDNAKNTVYLQMNSLKPEDTAVYYCATVDTVLVRPVGYDYWGQGTQVTVSS | low polyreactivity
24 | QVQLVESGGGLVQAGGSLRLSCAASGLTYADYAMGWYRQAPGKDRQLVAAISRRGGSTYYADSVKGRFTISRDKAKNTVYLQMNSLKPEDTAVYYCAAYAYDVAFKRYKFDYWGQGTLVTVSS | high polyreactivity
25 | QVQLVESGGGLVQAGGSLRLSCAASGMGWYRQAPGKERELVAAITSGDSTNYADSVKGRFTISRDNAKNTVYLQMNSLKPEDTAVYYCAADPDYLYAYYYWGQGSQVTVSS | low polyreactivity
26 | QVQLVESGGGLVQAGGSLRLSCAASGMGWYRQAPGKERELVAAITSGDSTNYADSVKGRFTISRDNAKNTVYLQMNSLKPEDTAVYYCAADPDYLYAYYYWGQGTQVTVSS | low polyreactivity
27 | QVQLVESGGGLVQAGGSLRLSCAASGMGWYRQAPGKERELVATITWSDGITYADSVKGRFTISRDNAKNTVYLQMNSLKPEDTAVYYCNADWDQTGTVFYSFGMREMDSWGQGTQVTVSS | low polyreactivity
28 | QVQLVESGGGLVQAGGSLRLSCAASGMIFQDNAMGWYSQAPGKERELVAAITTGGITYYADSVKGRFTISRDNAKNTVYLQMNSLKPEDTAVYYCATDPVKSGYQRYYYWGQGTQVTVSS | low polyreactivity
29 | QVQLVESGGGLVQAGGSLRLSCAASGMTFFTYSMGWYRQAPGKERELVAAISGSGGSTYYADSVKGRFTISRDNAKNTVYLQMNSLKPEDTAVYYCAKRSWIVYDYWGQGTQVTVSS | low polyreactivity
30 | QVQLVESGGGLVQAGGSLRLSCAASGMVWYRQAPGKERELVAAITSGDSTNYADSVKGRFTISRDNAKNTVYLQMNCLKPEDTSVYYCAADPDYLYAYFYWGQGTQVSVSS | low polyreactivity
31 | QVQLVESGGGLVQAGGSLRLSCAASGNAMGWYRQAPGKERELVAAITYGGTTTYYADSVKGRFTISRDNAKNTVYLQMNSLKPEDTAVYYCAADYVFVATPLRYDYWGQGTQVTVSS | low polyreactivity
32 | QVQLVESGGGLVQAGGSLRLSCAASGNICITYAMGWYRQAPGKEREFVAAISRRRGRTYYADSVKARFTISRDKAKNTVYLQMNSLKPVDTAVYYCAADPATSVYGGLNYWGQVTQVTVSS | high polyreactivity
